Common to all, as to assay: stopped-flow presteady-state phosphate release, MDCC-PBP fluorescence; hyperbolic fit of initial exponential rates
Type in all cases: biochemical, Mus musculus

Substrate in series [1]: Nc1ncnc2c1ncn2[C@@H]1O[C@H](COP(=O)(O)OP(=O)(O)OP(=O)(O)O)[C@@H](O)[C@H]1O
The following applies: preformed microtubule-KIF3 complex (2 μM MT, 0.5 μM dimer in syringe), 250 mM KCl in ATP syringe, 5 mM magnesium acetate, pH 7.2, 25 °C, not steady-state Km. The source says:
stopped-flow presteady-state phosphate release, MDCC-PBP fluorescence; hyperbolic fit of initial exponential rates on KIF3AC

Substrate in series [2]: Nc1ncnc2c1ncn2[C@@H]1O[C@H](COP(=O)(O)OP(=O)(O)OP(=O)(O)O)[C@@H](O)[C@H]1O
The following applies: preformed microtubule-KIF3 complex (2 μM MT, 0.5 μM dimer in syringe), 300 mM KCl in ATP syringe, 5 mM magnesium acetate, pH 7.2, 25 °C, not steady-state Km. The source says:
stopped-flow presteady-state phosphate release, MDCC-PBP fluorescence; hyperbolic fit of initial exponential rates on KIF3AA

Substrate in series [3]: Nc1ncnc2c1ncn2[C@@H]1O[C@H](COP(=O)(O)OP(=O)(O)OP(=O)(O)O)[C@@H](O)[C@H]1O
As to conditions: preformed microtubule-KIF3 complex (2 μM MT, 0.5 μM dimer in syringe), 300 mM KCl in ATP syringe, 5 mM magnesium acetate, pH 7.2, 25 °C, not steady-state Km. An excerpt:
stopped-flow presteady-state phosphate release, MDCC-PBP fluorescence; hyperbolic fit of initial exponential rates on KIF3CC
The source holds these as a separate data set.

The values below come from paper PMC7948976, “KIF3A accelerates KIF3C within the kinesin-2 heterodimer to generate symmetrical phosphate release rates for each processive step” (The Journal of Biological Chemistry, 2020).

B1: KIF3AC (Mus musculus) (protein)
chain 1: MPINKSEKPESCDNVKVVVRCRPLNEREKSMCYRQAVSVDEMRGTITVHKTDSSNEPPKTFTFDTVFGPESKQLDVYNLTARPIIDSVLEGYNGTIFAYGQTGTGKTFTMEGVRAVPGLRGVIPNSFAHIFGHIAKAEGDTRFLVRVSYLEIYNEEVRDLLGKDQTQRLEVKERPDVGVYIKDLSAYVVNNADDMDRIMTLGHKNRSVGATNMNEHSSRSHAIFTITIECSEKGVDGNMHVRMGKLHLVDLAGSERQAKTGATGQRLKEATKINLSLSTLGNVISALVDGKSTHVPYRNSKLTRLLQDSLGGNSKTMMCANIGPADYNYDETISTLRYANRAKNIKNKARINEDPKDALLRQFQKEIEELKKKL
chain 2: MASKTKASEALKVVARCRPLSRKEEAAGHEQILTMDVKLGQVTLRNPRAAPGELPKTFTFDAVYDASSKQADLYDETVRPLIDSVLQGFNGTVFAYGQTGTGKTYTMQGTWVEPELRGVIPNAFEHIFTHISRSQNQQYLVRASYLEIYQEEIRDLLSKEPGKRLELKENPETGVYIKDLSSFVTKNVKEIEHVMNLGNQARAVGSTHMNEVSSRSHAIFVITVECSERGSDGQDHIRVGKLNLVDLAGSERQNKAGPNAAGGPATQPTAGGGSGSGSASGSASSGERPKEASKINLSLSALGNVIAALAGNRSTHIPYRDSKLTRLLQDSLGGNAKTIMVATLGPASHSYDESLSTLRFANRAKNIKNKPRVNEDPKDTLLREFQEEIARLKAQL
notes: heterodimer; motor domain, neck linker and helix α7 (KIF3A Met1-Leu374, KIF3C Met1-Leu396), each fused to EB1 dimerization domain; KIF3A StrepII tag, KIF3C His8 tag, tags not cleaved; E. coli; dimer MW 98,318
Regarding B1, the K0.5 in series [1] came out at 28.2 ± 1.8 µM.

B2: KIF3AA (Mus musculus) (protein)
chain: B1 chain 1
notes: engineered homodimer; motor domain Met1-Leu374 fused to EB1 dimerization domain; His8 tag not cleaved; E. coli; dimer MW 97,004
Take B2: in series [2], the K0.5 came out at 30.9 ± 4.7 µM.

B3: KIF3CC (Mus musculus) (protein)
chain: B1 chain 2
notes: engineered homodimer; motor domain, neck linker and helix α7 (Met1-Leu396) fused to EB1 dimerization domain; His8 tag not cleaved; E. coli; dimer MW 99,518 (borders printed for the KIF3C chain of KIF3AC; mass agrees)
For the protein B3, in series [3], the K0.5 is 13.9 ± 3.5 µM.
